Measured values taken from the supplement of paper PMC9170038.

Tested on: MS2 coat protein
Test: apparent KD of MS2 coat protein; designed switch direction (-1 OFF switch, 1 ON switch): -1; higher = weaker reporter binding
How it was run: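 The reported apparent KD is a per-design median over clusters, from curve fits of normalised cluster fluorescence. Protein titrations used SNAP-549-labelled MS2 coat protein, doubled from 0.7 or 1.5 nM to 3 µM, in Tris-HCl pH 7.5 buffer with KCl, MgCl2, BSA, DTT, tRNA and Tween-20, with no input, 200 uM small-molecule ligand, or an oligonucleotide input. The RNA switches were transcribed on Illumina chips by stalled E. coli RNA polymerase.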

[1] = input ligand: microRNA oligo, concentration not stated
[2] = Eterna round: R95, input ligand: FMN 200 uM
[3] = Eterna round: R95, input ligand: microRNA oligo, concentration not stated
[4] = Eterna round: R95, input ligand: none

Sequence: UAUUGGAUAGGAUAUACAUGAGGAUCACCCAUGUGGACGGCUAAGCCUACCGCGCAGAGUAGAAGGGUCGGGUG [Eternabot (L1) Solution 66] (Eterna round: R97, puzzle: Exclusion 3)
- apparent KD of MS2 coat protein (input ligand: FMN 200 uM): 0.161 µM
- apparent KD of MS2 coat protein (input ligand: none): 0.155 µM

Sequence: UAUUUACAUGAGGAUCACCCAUGUCAGGAUAUGUUUCUAUCGUCGAAAGACGAUAUUUGCAGAAGGGACAAUAU [LRO-Excl01-26 mod derived from EliFisker 4.24] (Eterna round: R97, puzzle: Exclusion 1)
- apparent KD of MS2 coat protein (input ligand: FMN 200 uM): 0.0644 µM
- apparent KD of MS2 coat protein (input ligand: none): 0.0279 µM

Sequence: UAUUUUAAAGUAAGGAUAUCGGUCCGAAAGGACUACGAGAAGGUACAUGAGGAUCACCCAUGUGAAAUAAGAAU [Mod of Zala 23 - Jieux - Brourd's Mod of Exclusion 4] (Eterna round: R97, puzzle: Brourd's mod of Exclusion 4)
- apparent KD of MS2 coat protein (input ligand: FMN 200 uM): 0.0208 µM
- apparent KD of MS2 coat protein (input ligand: none): 0.015 µM

Sequence: UCAAAAUAGUCAGGAUAUGCAGAUUCAGCGUCCGCAGAAGGGACAGUGGGCUGGUCCGACACAUGAGGAUCACCCAUGUAAAAG [Teerreanor] (Eterna round: R96, puzzle: Exclusion NG 1)
- apparent KD of MS2 coat protein (input ligand: FMN 200 uM): 0.26 µM
- apparent KD of MS2 coat protein [1]: 0.14 µM
- apparent KD of MS2 coat protein (input ligand: none): 0.109 µM

Sequence: UCAAGCUUUAAGCGUGUGAACAUGAGGAUCACCCAUGUAUUUUAGGUAAUAAGUUCUUUUAUGUAUUCUCGUCUUAU [JR_SWV3TOV1_Sub094] (puzzle: Sensor v3, turn-off variant 1)
- apparent KD of MS2 coat protein [2]: 0.114 µM
- apparent KD of MS2 coat protein [3]: 0.0391 µM
- apparent KD of MS2 coat protein [4]: 0.136 µM

Sequence: UCAAGUAUGUAGGAUAUGAUGUGAUUUUACAUAUCAGAAGGACGUACAUGAGGAUCACCCAUGUAACUUGCAUG [Exclusion 6 - B - 12:a] (puzzle: Exclusion 6)
- apparent KD of MS2 coat protein [3]: 0.0869 µM

Sequence: UCACGGCUCGGAGGAUAUGACACAUGAGGAUCACCCAUGUGUGUAAGCCAAUAAACCUACAAAUGUCAGAAGGCCGCGCCUCAU [Eternabot solution 9] (Eterna round: R96, puzzle: Exclusion NG 2)
- apparent KD of MS2 coat protein [1]: 0.0108 µM

Sequence: UCACGGGACUGAGGAUAUACAUGAAUUAUUUUUGUAGAAGGCAGAAUGUUAGUUUAUUCACUAUACAUGAGGAUCACCCAUGUU [JR_ExcNG1_Sub021] (Eterna round: R96, puzzle: Exclusion NG 1)
- apparent KD of MS2 coat protein (input ligand: FMN 200 uM): 0.0215 µM
- apparent KD of MS2 coat protein [1]: 0.0267 µM
- apparent KD of MS2 coat protein (input ligand: none): 0.0329 µM

Sequence: UCACGGGAUUGAGGAUAUAUAUUAAUUUUUUUUAUAGAAGGCAAAUUGUUAGAUUAUUCACUAUACAUGAGGAUCACCCAUGUU [JR_ExcBG1_Sub077] (Eterna round: R96, puzzle: Exclusion NG 1)
- apparent KD of MS2 coat protein [1]: 0.0199 µM

Sequence: UCACGGGAUUGAGGAUAUAUAUUUAUUAUUUUAAUAGAAGGCAAAGAGUUAGUUUUUUCACUAUACAUGAGGAUCACCCAUGUU [JR_ExcNG1_Sub086] (Eterna round: R96, puzzle: Exclusion NG 1)
- apparent KD of MS2 coat protein [1]: 0.0232 µM

Sequence: UCAGGAGCAGGAUAUGCAAUCGUGCUUCGGCACGUAAGGUCACAUGAGGAUCACCCAUGUAGAAGGGCUCCUGA [E2/4-D2] (Eterna round: R97, puzzle: Exclusion 2)
- apparent KD of MS2 coat protein (input ligand: FMN 200 uM): 0.0384 µM
- apparent KD of MS2 coat protein (input ligand: none): 0.0185 µM

Sequence: UCAGGUGCAGGAUAUACAUGAGGAUCACCCAUGUGAUUAGCAGUCCUCGGACUGCAAUGUAGAAGGGCACCUGA [E3/2-D2] (Eterna round: R97, puzzle: Exclusion 3)
- apparent KD of MS2 coat protein (input ligand: FMN 200 uM): 0.763 µM
- apparent KD of MS2 coat protein (input ligand: none): 0.346 µM

Sequence: UCAUACGAUGAGGAUAUCUCAGUUAAAGUAUUUAGAGAAGGCGUUACAUGAGGAUCACCCAUGUUUGUGGGCAG [Ex-6 Malc#8] (puzzle: Exclusion 6)
- apparent KD of MS2 coat protein [2]: 0.0991 µM
- apparent KD of MS2 coat protein [3]: 0.0939 µM
- apparent KD of MS2 coat protein [4]: 0.136 µM

Sequence: UCAUACGAUGAGGAUAUCUCCGUUAAAGUAUGUAGAGAAGGCGUUACAUGAGGAUCACCCAUGUUUGUGGGCAG [Ex-6 Malc#9] (Eterna round: R96, puzzle: Exclusion 6)
- apparent KD of MS2 coat protein [1]: 0.25 µM

Sequence: UCAUACGAUGAGGAUAUCUCCGUUAAAGUAUGUAGAGAAGGCGUUACAUGAGGAUCACCCAUGUUUGUGGGCAG [Ex-6 Malc#9] (puzzle: Exclusion 6)
- apparent KD of MS2 coat protein [2]: 0.223 µM
- apparent KD of MS2 coat protein [3]: 0.217 µM
- apparent KD of MS2 coat protein [4]: 0.19 µM

Sequence: UCAUAGUGAGGAUAUCGGUCCCUGACAAAUAGUUGGGUUAUUGAGAAGGCACAUGAGGAUCACCCAUGUGUCCG [EX4 C.5] (Eterna round: R97, puzzle: Exclusion 4)
- apparent KD of MS2 coat protein (input ligand: FMN 200 uM): 0.0197 µM
- apparent KD of MS2 coat protein (input ligand: none): 0.0135 µM

Sequence: UCAUGUAUGUAGGAUAUCGAUGUCUUCGGACAUCGAGAAGGACGUACAUGAGGAUCACCCAUGUAACUUGCAUG [Exclusion 6 - B - 11:b] (puzzle: Exclusion 6)
- apparent KD of MS2 coat protein [3]: 0.0148 µM

Sequence: UCCAAGACAGGAUAUCUAGAGCCAAACAUGAGGAUCACCCAUGUGAAUCUCAGCAAACGCAGAGAAGGGUCAAAAU [Orisinxe] (puzzle: Exclusion 5)
- apparent KD of MS2 coat protein [2]: 0.0301 µM
- apparent KD of MS2 coat protein [3]: 0.0232 µM
- apparent KD of MS2 coat protein [4]: 0.0309 µM

Sequence: UCCACACAUGAGGAUCACCCAUGUCAGGAUAUCUUUAGGGACUAUGGUUAUUCCUAAUAGAGAAGGGACAUAUU [EX1 B.27] (Eterna round: R97, puzzle: Exclusion 1)
- apparent KD of MS2 coat protein (input ligand: FMN 200 uM): 0.152 µM
- apparent KD of MS2 coat protein (input ligand: none): 0.0371 µM

Sequence: UCCAGACAUGAGGAUCACCCAUGUGAGGAUAUGAUGCGAUCGUCGAAAGACGAUAGCAUCAGAAGGCACGUAUG [Fiskers Ex 1 - 15] (puzzle: Exclusion 1)
- apparent KD of MS2 coat protein [3]: 0.0326 µM

Sequence: UCCAUGUCAGGAUAUCUAAAGGUCCGAAAUAACGGUACUGCAGAGAAGGGACAUGAGGAUCACCCAUGUCCUCC [Exclusion 4 (Mod2 of Nando's EX4 C.22)] (Eterna round: R97, puzzle: Exclusion 4)
- apparent KD of MS2 coat protein (input ligand: FMN 200 uM): 0.0203 µM
- apparent KD of MS2 coat protein (input ligand: none): 0.016 µM

Sequence: UCCCUGUCAGGAUAUACAUGAGGAUCACCCAUGUCUCUCCGACACGGGAAAAGGAACUGUAGAAGGGACAGGAU [Xezaeseris] (puzzle: Exclusion 3)
- apparent KD of MS2 coat protein [2]: 0.0196 µM
- apparent KD of MS2 coat protein [3]: 0.0123 µM
- apparent KD of MS2 coat protein [4]: 0.0152 µM

Sequence: UCCUCACAUGAGGAUCACCCAUGUCAGGAUAUCCAGUUGGGCCUCUGUAGAGGCGCCAGGAGAAGGGAUAAGGA [Ceenerso] (Eterna round: R97, puzzle: Exclusion 1)
- apparent KD of MS2 coat protein (input ligand: FMN 200 uM): 0.0359 µM
- apparent KD of MS2 coat protein (input ligand: none): 0.0223 µM

Sequence: UCCUGACAUGAGGAUCACCCAUGUAAGGAUAUCAGCCACCCAGCAAAAGCUGGGCAAGUGAGAAGGUACACGGG [EX1 A.30] (Eterna round: R97, puzzle: Exclusion 1)
- apparent KD of MS2 coat protein (input ligand: FMN 200 uM): 0.157 µM
- apparent KD of MS2 coat protein (input ligand: none): 0.0306 µM

Sequence: UCCUUACUGGUCAGGAUAUACAGUCGCGGGUGGGUGUAGAAGGGACAUGAGGAUCACCCAUGUACGUUACAGCC [alecazam54i] (Eterna round: R97, puzzle: Brourd's mod of Exclusion 4)
- apparent KD of MS2 coat protein (input ligand: FMN 200 uM): 0.0276 µM
- apparent KD of MS2 coat protein (input ligand: none): 0.0302 µM

Sequence: UCGAAAUCUAACAAGCCAUACAUGAGGAUCACCCAUGUGUUCGUCAUAGCGAUCCGACAUGAUGCUCGUCGAAAUAC [Eternabot (L2) Solution 48] (Eterna round: R97, puzzle: Sensor, turn-off variant 1)
- apparent KD of MS2 coat protein (input ligand: FMN 200 uM): 0.448 µM
- apparent KD of MS2 coat protein (input ligand: none): 0.745 µM

Sequence: UCGCGCCUAGGAUAUAUAAGGACUUUCUAGUAUGUUGCGAAACAUGAGGAUCACCCAUGUAGAAGGAGGUAGUG [Eternabot (L2) Solution 89] (Eterna round: R97, puzzle: Exclusion 2)
- apparent KD of MS2 coat protein (input ligand: FMN 200 uM): 0.222 µM
- apparent KD of MS2 coat protein (input ligand: none): 0.0773 µM

Sequence: UCGCUCCGUGUAGGAUAUCGUUGUACCCUGCGGCGAGAAGGACAUGAGGAUCACCCAUGUAUGUUAUUAUCACGCGUGGCGCAC [Design 70] (Eterna round: R96, puzzle: Exclusion NG 1)
- apparent KD of MS2 coat protein (input ligand: FMN 200 uM): 0.0154 µM
- apparent KD of MS2 coat protein [1]: 0.0155 µM
- apparent KD of MS2 coat protein (input ligand: none): 0.0216 µM

Sequence: UCGCUGCGAGGAUAUACAUGAGGAUCACCCAUGUACGGGUCCGGGUCUUAGUUGAUUGGUAGAAGGCGCAGUGA [JL Laongeedie mod 11] (puzzle: Exclusion 3)
- apparent KD of MS2 coat protein [3]: 0.0847 µM

Sequence: UCGGCGCGAGGAUAUACGUUUGCGCGUUUUCGUUUGCGCGUACAUGAGGAUCACCCAUGUAGAAGGCGCGCGGC [Apr-15 SS2-13] (puzzle: Exclusion 2)
- apparent KD of MS2 coat protein [3]: 0.0115 µM

Sequence: UCGGCGCGAGGAUAUGCGGCUGGUGCUUCGGGCCCUGGCGUACAUGAGGAUCACCCAUGUAGAAGGCGCGCCGC [Apr-15 SS2-41] (puzzle: Exclusion 2)
- apparent KD of MS2 coat protein [3]: 0.0102 µM

Sequence: UCGGCGCGAGGAUAUGCGGUUUGUGCUUUGGGCCCUGGCGUACAUGAGGAUCACCCAUGUAGAAGGCGCGCCGC [Apr-15 SS2-47] (puzzle: Exclusion 2)
- apparent KD of MS2 coat protein [3]: 0.0159 µM

Sequence: UCGUGGUUACGCUGCAGUUGCCUGAGCGGAGGCUCUGUGACAUGAGGAUCACCCAUGUAGCUUUUUGCUCAUCUUAA [JR_SV3TOV2_Sub040] (puzzle: Sensor v3, turn-off variant 2)
- apparent KD of MS2 coat protein [2]: 0.0252 µM
- apparent KD of MS2 coat protein [3]: 0.0399 µM
- apparent KD of MS2 coat protein [4]: 0.0246 µM
